Our source for the Kd and Ki values is PMC3472523 (2012).

Positions of bridges follow the written chain, without caps; N, C: chain ends. fluorescein = fluorescein, an N-terminal fluorescent label

The chains are these.
T1: Mcl-1 (Mus musculus, UniProt P97287)
T1 chain: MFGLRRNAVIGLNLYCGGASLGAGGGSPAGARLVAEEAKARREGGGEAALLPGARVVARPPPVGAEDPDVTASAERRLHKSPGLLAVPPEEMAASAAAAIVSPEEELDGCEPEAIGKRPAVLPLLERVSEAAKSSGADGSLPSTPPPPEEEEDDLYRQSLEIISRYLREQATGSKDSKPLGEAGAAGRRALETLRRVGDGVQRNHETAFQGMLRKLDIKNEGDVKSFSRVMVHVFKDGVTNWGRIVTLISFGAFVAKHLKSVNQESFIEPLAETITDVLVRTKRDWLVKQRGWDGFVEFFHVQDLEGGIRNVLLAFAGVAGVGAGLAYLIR

B1: Noxa peptide 1 (peptide)
chain: AACLRRIGDCVNLRQKLLN
HELM: PEPTIDE1{[ac].A.A.C.L.R.R.I.G.D.C.V.N.L.R.Q.K.L.L.N.[am]}|CHEM1{[c1cc(-c2ccc(C[*:2])cc2)ccc1C[*:1]]}$PEPTIDE1,CHEM1,4:R3-1:R1|PEPTIDE1,CHEM1,11:R3-1:R2$$$V2.0
SMILES: CC[C@H](C)[C@@H]1NC(=O)[C@H](CCCNC(=N)N)NC(=O)[C@H](CCCNC(=N)N)NC(=O)[C@H](CC(C)C)NC(=O)[C@@H](NC(=O)[C@H](C)NC(=O)[C@H](C)NC(C)=O)CSCc2ccc(cc2)-c2ccc(cc2)CSC[C@@H](C(=O)N[C@H](C(=O)N[C@@H](CC(N)=O)C(=O)N[C@@H](CC(C)C)C(=O)N[C@@H](CCCNC(=N)N)C(=O)N[C@@H](CCC(N)=O)C(=O)N[C@@H](CCCCN)C(=O)N[C@@H](CC(C)C)C(=O)N[C@@H](CC(C)C)C(=O)N[C@@H](CC(N)=O)C(N)=O)C(C)C)NC(=O)[C@H](CC(=O)O)NC(=O)CNC1=O
B2: Noxa peptide 6 (peptide)
chain: AACLRRIGDCVNLRQKLLN
HELM: PEPTIDE1{[COC(=O)[*:2]].[meA].A.[dC].L.R.R.I.G.D.C.V.N.L.R.Q.K.L.L.N.[am]}|CHEM1{[c1cc(-c2ccc(C[*:2])cc2)ccc1C[*:1]]}$PEPTIDE1,CHEM1,4:R3-1:R1|PEPTIDE1,CHEM1,11:R3-1:R2$$$V2.0
SMILES: CC[C@H](C)[C@@H]1NC(=O)[C@H](CCCNC(=N)N)NC(=O)[C@H](CCCNC(=N)N)NC(=O)[C@H](CC(C)C)NC(=O)[C@H](NC(=O)[C@H](C)NC(=O)[C@H](C)N(C)C(=O)OC)CSCc2ccc(cc2)-c2ccc(cc2)CSC[C@@H](C(=O)N[C@H](C(=O)N[C@@H](CC(N)=O)C(=O)N[C@@H](CC(C)C)C(=O)N[C@@H](CCCNC(=N)N)C(=O)N[C@@H](CCC(N)=O)C(=O)N[C@@H](CCCCN)C(=O)N[C@@H](CC(C)C)C(=O)N[C@@H](CC(C)C)C(=O)N[C@@H](CC(N)=O)C(N)=O)C(C)C)NC(=O)[C@H](CC(=O)O)NC(=O)CNC1=O
B3: Noxa peptide 2 (peptide)
chain: AACLRRIGDCVNLRQKLLN
HELM: PEPTIDE1{[ac].A.A.[dC].L.R.R.I.G.D.C.V.N.L.R.Q.K.L.L.N.[am]}|CHEM1{[c1cc(-c2ccc(C[*:2])cc2)ccc1C[*:1]]}$PEPTIDE1,CHEM1,4:R3-1:R1|PEPTIDE1,CHEM1,11:R3-1:R2$$$V2.0
SMILES: CC[C@H](C)[C@@H]1NC(=O)[C@H](CCCNC(=N)N)NC(=O)[C@H](CCCNC(=N)N)NC(=O)[C@H](CC(C)C)NC(=O)[C@H](NC(=O)[C@H](C)NC(=O)[C@H](C)NC(C)=O)CSCc2ccc(cc2)-c2ccc(cc2)CSC[C@@H](C(=O)N[C@H](C(=O)N[C@@H](CC(N)=O)C(=O)N[C@@H](CC(C)C)C(=O)N[C@@H](CCCNC(=N)N)C(=O)N[C@@H](CCC(N)=O)C(=O)N[C@@H](CCCCN)C(=O)N[C@@H](CC(C)C)C(=O)N[C@@H](CC(C)C)C(=O)N[C@@H](CC(N)=O)C(N)=O)C(C)C)NC(=O)[C@H](CC(=O)O)NC(=O)CNC1=O
B4: Noxa peptide 3 (peptide)
chain: AACLRAIGDCVNLRQKLLN
HELM: PEPTIDE1{[ac].A.A.[dC].L.R.A.I.G.D.C.V.N.L.R.Q.K.L.L.N.[am]}|CHEM1{[c1cc(-c2ccc(C[*:2])cc2)ccc1C[*:1]]}$PEPTIDE1,CHEM1,4:R3-1:R1|PEPTIDE1,CHEM1,11:R3-1:R2$$$V2.0
SMILES: CC[C@H](C)[C@@H]1NC(=O)[C@H](C)NC(=O)[C@H](CCCNC(=N)N)NC(=O)[C@H](CC(C)C)NC(=O)[C@H](NC(=O)[C@H](C)NC(=O)[C@H](C)NC(C)=O)CSCc2ccc(cc2)-c2ccc(cc2)CSC[C@@H](C(=O)N[C@H](C(=O)N[C@@H](CC(N)=O)C(=O)N[C@@H](CC(C)C)C(=O)N[C@@H](CCCNC(=N)N)C(=O)N[C@@H](CCC(N)=O)C(=O)N[C@@H](CCCCN)C(=O)N[C@@H](CC(C)C)C(=O)N[C@@H](CC(C)C)C(=O)N[C@@H](CC(N)=O)C(N)=O)C(C)C)NC(=O)[C@H](CC(=O)O)NC(=O)CNC1=O
B5: Noxa peptide 5 (peptide)
chain: AACLRAIGDCVNLAQALLN
HELM: PEPTIDE1{[ac].A.A.[dC].L.R.A.I.G.D.C.V.N.L.A.Q.A.L.L.N.[am]}|CHEM1{[c1cc(-c2ccc(C[*:2])cc2)ccc1C[*:1]]}$PEPTIDE1,CHEM1,4:R3-1:R1|PEPTIDE1,CHEM1,11:R3-1:R2$$$V2.0
SMILES: CC[C@H](C)[C@@H]1NC(=O)[C@H](C)NC(=O)[C@H](CCCNC(=N)N)NC(=O)[C@H](CC(C)C)NC(=O)[C@H](NC(=O)[C@H](C)NC(=O)[C@H](C)NC(C)=O)CSCc2ccc(cc2)-c2ccc(cc2)CSC[C@@H](C(=O)N[C@H](C(=O)N[C@@H](CC(N)=O)C(=O)N[C@@H](CC(C)C)C(=O)N[C@@H](C)C(=O)N[C@@H](CCC(N)=O)C(=O)N[C@@H](C)C(=O)N[C@@H](CC(C)C)C(=O)N[C@@H](CC(C)C)C(=O)N[C@@H](CC(N)=O)C(N)=O)C(C)C)NC(=O)[C@H](CC(=O)O)NC(=O)CNC1=O
B6: Noxa peptide 8 (peptide)
chain: AACLRAIGDCVNLAQALLN
HELM: PEPTIDE1{[COC(=O)[*:2]].[meA].[meA].[dC].L.R.A.I.G.D.C.V.N.L.A.Q.A.L.L.N.[am]}|CHEM1{[c1cc(-c2ccc(C[*:2])cc2)ccc1C[*:1]]}$PEPTIDE1,CHEM1,4:R3-1:R1|PEPTIDE1,CHEM1,11:R3-1:R2$$$V2.0
SMILES: CC[C@H](C)[C@@H]1NC(=O)[C@H](C)NC(=O)[C@H](CCCNC(=N)N)NC(=O)[C@H](CC(C)C)NC(=O)[C@H](NC(=O)[C@H](C)N(C)C(=O)[C@H](C)N(C)C(=O)OC)CSCc2ccc(cc2)-c2ccc(cc2)CSC[C@@H](C(=O)N[C@H](C(=O)N[C@@H](CC(N)=O)C(=O)N[C@@H](CC(C)C)C(=O)N[C@@H](C)C(=O)N[C@@H](CCC(N)=O)C(=O)N[C@@H](C)C(=O)N[C@@H](CC(C)C)C(=O)N[C@@H](CC(C)C)C(=O)N[C@@H](CC(N)=O)C(N)=O)C(C)C)NC(=O)[C@H](CC(=O)O)NC(=O)CNC1=O
B7: Noxa peptide 7 (peptide)
chain: AACLRRIGDCVNLRQKLLN
HELM: PEPTIDE1{[COC(=O)[*:2]].[meA].[meA].[dC].L.R.R.I.G.D.C.V.N.L.R.Q.K.L.L.N.[am]}|CHEM1{[c1cc(-c2ccc(C[*:2])cc2)ccc1C[*:1]]}$PEPTIDE1,CHEM1,4:R3-1:R1|PEPTIDE1,CHEM1,11:R3-1:R2$$$V2.0
SMILES: CC[C@H](C)[C@@H]1NC(=O)[C@H](CCCNC(=N)N)NC(=O)[C@H](CCCNC(=N)N)NC(=O)[C@H](CC(C)C)NC(=O)[C@H](NC(=O)[C@H](C)N(C)C(=O)[C@H](C)N(C)C(=O)OC)CSCc2ccc(cc2)-c2ccc(cc2)CSC[C@@H](C(=O)N[C@H](C(=O)N[C@@H](CC(N)=O)C(=O)N[C@@H](CC(C)C)C(=O)N[C@@H](CCCNC(=N)N)C(=O)N[C@@H](CCC(N)=O)C(=O)N[C@@H](CCCCN)C(=O)N[C@@H](CC(C)C)C(=O)N[C@@H](CC(C)C)C(=O)N[C@@H](CC(N)=O)C(N)=O)C(C)C)NC(=O)[C@H](CC(=O)O)NC(=O)CNC1=O
B8: Noxa peptide 4 (peptide)
chain: AACLRAIGDCVNLAQKLLN
HELM: PEPTIDE1{[ac].A.A.[dC].L.R.A.I.G.D.C.V.N.L.A.Q.K.L.L.N.[am]}|CHEM1{[c1cc(-c2ccc(C[*:2])cc2)ccc1C[*:1]]}$PEPTIDE1,CHEM1,4:R3-1:R1|PEPTIDE1,CHEM1,11:R3-1:R2$$$V2.0
SMILES: CC[C@H](C)[C@@H]1NC(=O)[C@H](C)NC(=O)[C@H](CCCNC(=N)N)NC(=O)[C@H](CC(C)C)NC(=O)[C@H](NC(=O)[C@H](C)NC(=O)[C@H](C)NC(C)=O)CSCc2ccc(cc2)-c2ccc(cc2)CSC[C@@H](C(=O)N[C@H](C(=O)N[C@@H](CC(N)=O)C(=O)N[C@@H](CC(C)C)C(=O)N[C@@H](C)C(=O)N[C@@H](CCC(N)=O)C(=O)N[C@@H](CCCCN)C(=O)N[C@@H](CC(C)C)C(=O)N[C@@H](CC(C)C)C(=O)N[C@@H](CC(N)=O)C(N)=O)C(C)C)NC(=O)[C@H](CC(=O)O)NC(=O)CNC1=O

The target of one assay is Bcl-xL (Homo sapiens, UniProt Q07817). Description: fluorescence polarization. Background: Fluorescence polarisation rises when a labelled molecule tumbles more slowly, as on binding a larger partner.
Chain of Bcl-xL (Q07817 whole entry): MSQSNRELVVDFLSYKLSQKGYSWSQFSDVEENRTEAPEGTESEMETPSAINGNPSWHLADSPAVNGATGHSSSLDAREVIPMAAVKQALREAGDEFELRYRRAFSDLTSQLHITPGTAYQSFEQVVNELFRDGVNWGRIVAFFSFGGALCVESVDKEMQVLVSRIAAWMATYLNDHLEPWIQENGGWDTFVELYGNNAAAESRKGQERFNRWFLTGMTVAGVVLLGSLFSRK
Regarding fluorescein-AACLRRIGDCVNLRQKLLN-NH2 (linker 3-10 via biphenyl) [Fl-1 (Bph-cross-linked Noxa peptide 1)], the Kd (commonly the equilibrium constant for the complex coming apart) is more than 1000 nM.

A further assay has as its target T1, Mcl-1. Description: competitive fluorescence polarization.
Consider B1, for which the affinity, expressed as Ki, was 10 nM.

In the case of B2, affinity was put at a Ki of 32 nM.

As to B3, the inhibition constant Ki (commonly the equilibrium dissociation constant of an inhibitor or competing ligand from its target) worked out at 54 nM. Still for that read-out and setting: for B4 the value was 23 nM; for B5, 29 nM. In turn, B6 displayed a Ki of 22 nM. B7 returned a Ki of 22 nM. B8: the Ki came out at 28 nM.
